Values of other authors as cited in PMC4435181.

Target: HER2 ECD (Homo sapiens) (UniProt P04626)
Test: ELISA

## trastuzumab
  Kd: 0.1 nM
